Laboratory results as given in patent publication US6432692B1, “Sensitive bioassay for detecting agonists of the aryl hydrocarbon receptor” (Wisconsin Alumni Research Foundation, priority 1999, dated 2002).

Tested on: AHR
Experiment: Coimmunoprecipitation of 35S-labeled AHR with T7-tagged ARA9 or FKBP52
Format: binding
Details: T7-agarose coimmunoprecipitation, reticulocyte lysate AHR
Protocol: Bacterial Expression: The ARA9 and FKBP52 proteins tagged with the T7 peptide (PL799, PL1004, PL1005 and PL947) were expressed in BL21(DE3) bacteria (Novagen). The T7 tag is an 11 amino acid peptide, MASMTGGQQMG, that facilitates detection and purification of the recombinant protein using anti-T7 antibodies (Novagen). Saturated cultures were used to inoculate LB growth media supplemented with 0.4 mM IPTG and 100 μg/ml ampicillin. The bacteria were allowed to grow an additional 4 hours at 37° C and pelleted by centrifugation at 5000×g for 5 min. The pellet was resuspended in bind/wash buffer (4.29 mM Na2HPO4, 1.47 mM KH2PO4, 2.7 mM KCl, 0.137 M NaCl, 0.1% (v/v) Tween and 0.002% (w/v) NaN3). The resulting mixture was disrupted using four ×15 second sonic pulses on ice. Insoluble debris was removed by centrifugation at 12,000×g for 20 minutes at 4° C. The supernatant was passed through a […] filter and protein concentrations determined by the BCA protein assay (Pierce, Rockford Ill.). […] The complexes were then precipitated and analyzed by SDS-PAGE and autoradiography.
Specificity of ARA9 for AHR: The structural similarity between ARA9 and FKBP52 led us to compare the relative capacity of these two factors to bind AHR. […] The AHR-ARA9 or AHR-FKBP52 associations were determined by coimmunoprecipitation with T7-agarose.

B1: ARA9: 37 kDa Ah receptor-associated protein, immunophilin structurally similar to FKBP52 (protein, UniProt O08915 1-330, looked up)
AH receptor-interacting …: MADLIARLREDGIQKRVIQEGRGELPDFQDGTKATFHFRTLHSDNEGSVIDDSRTRGKPMELIVGKKFKLPVWETIVCTMREGEIAQFLCDIKHVVLYPLVAKSLRNIAEGKDPLEGQRHCCGIAQMHEHSSLGHADLDALQQNPQPLIFHIEMLKVESPGTYQQDPWAMTDEEKAKAVPVIHQEGNRLYREGQVKEAAAKYYDAIACLKNLQMKEQPGSPDWIQLDLQITPLLLNYCQCKLVAQEYYEVLDHCSSILNKYDDNVKAYFKRGKAHAAVWNAQEAQADFAKVLELDPALAPVVSRELRALETRIRQKDEEDKARFRGIFSH
  efficiency at precipitating AHR relative to FKBP52: approximately four times more efficient
